EP4768503A1

Biological target: amyloid precursor protein (APP) on HEK293-APP stable transfected cells (UniProt P05067)
Assay: flow cytometry on HEK293-APP cells, four-parameter fit of MFI

amyloid precursor protein (APP) on HEK293-APP stable transfected cells, sequence (P05067 18-770): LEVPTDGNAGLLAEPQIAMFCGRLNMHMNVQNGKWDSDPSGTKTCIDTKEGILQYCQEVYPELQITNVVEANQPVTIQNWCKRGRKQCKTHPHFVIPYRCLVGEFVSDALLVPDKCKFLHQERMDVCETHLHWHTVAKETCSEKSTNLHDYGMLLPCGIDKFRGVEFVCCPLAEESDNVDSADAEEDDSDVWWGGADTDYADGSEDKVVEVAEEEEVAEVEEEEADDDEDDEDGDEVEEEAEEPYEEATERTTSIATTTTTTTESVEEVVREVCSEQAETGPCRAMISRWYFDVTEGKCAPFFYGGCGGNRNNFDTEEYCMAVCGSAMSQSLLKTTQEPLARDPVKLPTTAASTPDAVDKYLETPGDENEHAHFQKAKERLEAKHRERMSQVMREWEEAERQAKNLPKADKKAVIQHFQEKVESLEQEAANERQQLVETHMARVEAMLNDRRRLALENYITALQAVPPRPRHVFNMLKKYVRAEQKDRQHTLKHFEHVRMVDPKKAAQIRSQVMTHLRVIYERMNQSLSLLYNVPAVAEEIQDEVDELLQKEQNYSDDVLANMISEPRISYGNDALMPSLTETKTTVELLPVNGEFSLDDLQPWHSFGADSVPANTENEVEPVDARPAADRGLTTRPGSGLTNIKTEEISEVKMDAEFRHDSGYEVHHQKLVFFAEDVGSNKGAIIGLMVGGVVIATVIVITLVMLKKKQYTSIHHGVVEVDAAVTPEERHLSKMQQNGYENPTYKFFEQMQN

EC50: 6.83 nM
Substance: Lecanemab (antibody)
